Measurements from US20040087777A1 (NEURALAB, published 2004).

Tests used:
… analog, Residue 3 = C = target: T1, … analog, Residue 3 = C; assay: rNET
T1 peptide: DACFRHDSGY
Experimental: (§1) The rNET epitope map assay provides information about the contribution of individual residues within the epitope to the overall binding activity of the antibody. rNET analysis uses synthesized systematic single substituted peptide analogs. Binding of an antibody being tested is determined against native peptide (native antigen) and against 19 alternative “single substituted” peptides, each peptide being substituted at a first position with one of 19 non-native amino acids for that position. A profile is generated reflecting the effect of substitution at that position with the various non-native residues. Profiles are likewise generated at successive positions along the antigenic peptide. The combined profile, or epitope map, (reflecting substitution at each position with all 19 non-native residues) can then be compared to a map similarly generated for a second antibody.
(§2) Antibodies were tested for binding against the native Aβ peptide [sequence] […] Residues 1-8 were systematically substituted with each of the 19 non-native residues for that position.

… analog, Residue 2 = F = target: T2, … analog, Residue 2 = F; assay: rNET
T2 peptide: DFEFRHDSGY
Experimental: as §1, §2

… analog, Residue 8 = C = target: T3, … analog, Residue 8 = C; assay: rNET
T3 peptide: DAEFRHDCGY
Experimental: as §1, §2

… analog, Residue 3 = M = target: T4, … analog, Residue 3 = M; assay: rNET
T4 peptide: DAMFRHDSGY
Experimental: as §1, §2

… analog, Residue 3 = L = target: T5, … analog, Residue 3 = L; assay: rNET
T5 peptide: DALFRHDSGY
Experimental: as §1, §2

… analog, Residue 1 = N = target: T6, … analog, Residue 1 = N; assay: rNET
T6 peptide: NAEFRHDSGY
Experimental: as §1, §2

… analog, Residue 3 = Y = target: T7, … analog, Residue 3 = Y; assay: rNET
T7 peptide: DAYFRHDSGY
Experimental: as §1, §2

… analog, Residue 2 = N = target: T8, … analog, Residue 2 = N; assay: rNET
T8 peptide: DNEFRHDSGY
Experimental: as §1, §2

… analog, Residue 1 = K = target: T9, … analog, Residue 1 = K; assay: rNET
T9 peptide: KAEFRHDSGY
Experimental: as §1, §2

… analog, Residue 1 = W = target: T10, … analog, Residue 1 = W; assay: rNET
T10 peptide: WAEFRHDSGY
Experimental: as §1, §2

… analog, Residue 3 = Q = target: T11, … analog, Residue 3 = Q; assay: rNET
T11 peptide: DAQFRHDSGY
Experimental: as §1, §2

… analog, Residue 8 = N = target: T12, … analog, Residue 8 = N; assay: rNET
T12 peptide: DAEFRHDNGY
Experimental: as §1, §2

… analog, Residue 1 = E = target: T13, … analog, Residue 1 = E; assay: rNET
T13 peptide: EAEFRHDSGY
Experimental: as §1, §2

… analog, Residue 1 = P = target: T14, … analog, Residue 1 = P; assay: rNET
T14 peptide: PAEFRHDSGY
Experimental: as §1, §2

… analog, Residue 8 = P = target: T15, … analog, Residue 8 = P; assay: rNET
T15 peptide: DAEFRHDPGY
Experimental: as §1, §2

… analog, Residue 3 = D = target: T16, … analog, Residue 3 = D; assay: rNET
T16 peptide: DADFRHDSGY
Experimental: as §1, §2

… analog, Residue 2 = T = target: T17, … analog, Residue 2 = T; assay: rNET
T17 peptide: DTEFRHDSGY
Experimental: as §1, §2

… analog, Residue 1 = I = target: T18, … analog, Residue 1 = I; assay: rNET
T18 peptide: IAEFRHDSGY
Experimental: as §1, §2

… analog, Residue 2 = Q = target: T19, … analog, Residue 2 = Q; assay: rNET
T19 peptide: DQEFRHDSGY
Experimental: as §1, §2

… analog, Residue 3 = I = target: T20, … analog, Residue 3 = I; assay: rNET
T20 peptide: DAIFRHDSGY
Experimental: as §1, §2

… analog, Residue 2 = G = target: T21, … analog, Residue 2 = G; assay: rNET
T21 peptide: DGEFRHDSGY
Experimental: as §1, §2

… analog, Residue 3 = W = target: T22, … analog, Residue 3 = W; assay: rNET
T22 peptide: DAWFRHDSGY
Experimental: as §1, §2

… analog, Residue 1 = F = target: T23, … analog, Residue 1 = F; assay: rNET
T23 peptide: FAEFRHDSGY
Experimental: as §1, §2

… analog, Residue 1 = L = target: T24, … analog, Residue 1 = L; assay: rNET
T24 peptide: LAEFRHDSGY
Experimental: as §1, §2

… analog, Residue 1 = Y = target: T25, … analog, Residue 1 = Y; assay: rNET
T25 peptide: YAEFRHDSGY
Experimental: as §1, §2

… analog, Residue 1 = M = target: T26, … analog, Residue 1 = M; assay: rNET
T26 peptide: MAEFRHDSGY
Experimental: as §1, §2

… analog, Residue 2 = I = target: T27, … analog, Residue 2 = I; assay: rNET
T27 peptide: DIEFRHDSGY
Experimental: as §1, §2

… analog, Residue 2 = K = target: T28, … analog, Residue 2 = K; assay: rNET
T28 peptide: DKEFRHDSGY
Experimental: as §1, §2

… analog, Residue 8 = H = target: T29, … analog, Residue 8 = H; assay: rNET
T29 peptide: DAEFRHDHGY
Experimental: as §1, §2

… analog, Residue 3 = N = target: T30, … analog, Residue 3 = N; assay: rNET
T30 peptide: DANFRHDSGY
Experimental: as §1, §2

… analog, Residue 1 = R = target: T31, … analog, Residue 1 = R; assay: rNET
T31 peptide: RAEFRHDSGY
Experimental: as §1, §2

… analog, Residue 2 = H = target: T32, … analog, Residue 2 = H; assay: rNET
T32 peptide: DHEFRHDSGY
Experimental: as §1, §2

… analog, Residue 1 = S = target: T33, … analog, Residue 1 = S; assay: rNET
T33 peptide: SAEFRHDSGY
Experimental: as §1, §2

… analog, Residue 1 = H = target: T34, … analog, Residue 1 = H; assay: rNET
T34 peptide: HAEFRHDSGY
Experimental: as §1, §2

… analog, Residue 3 = K = target: T35, … analog, Residue 3 = K; assay: rNET
T35 peptide: DAKFRHDSGY
Experimental: as §1, §2

… analog, Residue 8 = R = target: T36, … analog, Residue 8 = R; assay: rNET
T36 peptide: DAEFRHDRGY
Experimental: as §1, §2

… analog, Residue 3 = P = target: T37, … analog, Residue 3 = P; assay: rNET
T37 peptide: DAPFRHDSGY
Experimental: as §1, §2

… analog, Residue 1 = C = target: T38, … analog, Residue 1 = C; assay: rNET
T38 peptide: CAEFRHDSGY
Experimental: as §1, §2

… analog, Residue 1 = A = target: T39, … analog, Residue 1 = A; assay: rNET
T39 peptide: AAEFRHDSGY
Experimental: as §1, §2

… analog, Residue 8 = K = target: T40, … analog, Residue 8 = K; assay: rNET
T40 peptide: DAEFRHDKGY
Experimental: as §1, §2

… analog, Residue 1 = G = target: T41, … analog, Residue 1 = G; assay: rNET
T41 peptide: GAEFRHDSGY
Experimental: as §1, §2

… analog, Residue 2 = C = target: T42, … analog, Residue 2 = C; assay: rNET
T42 peptide: DCEFRHDSGY
Experimental: as §1, §2

… analog, Residue 3 = H = target: T43, … analog, Residue 3 = H; assay: rNET
T43 peptide: DAHFRHDSGY
Experimental: as §1, §2

… analog, Residue 2 = D = target: T44, … analog, Residue 2 = D; assay: rNET
T44 peptide: DDEFRHDSGY
Experimental: as §1, §2

… analog, Residue 2 = R = target: T45, … analog, Residue 2 = R; assay: rNET
T45 peptide: DREFRHDSGY
Experimental: as §1, §2

[1] = target: T46, beta amyloid peptide (Aβ) (human, UniProt P05067 672-713, limits assumed); assay: BIAcore
T46 construct: also called A-beta; β-amyloid peptide
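Throughout, for OD: antibody binding measured against single-substituted peptide analogs, each epitope position replaced by every one of 19 non-native amino acids, compared with binding to the native Aβ peptide.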

B1: humanized 3D6 version 2 (antibody, V domains shown)
VH: EVQLLESGGGLVQPGGSLRLSCAASGFTFSNYGMSWVRQAPGKGLEWVASIRSGGGRTYYSDNVKGRFTISRDNSKNTLYLQMNSLRAEDTAVYYCVRYDHYSGSSDYWGQGTLVTVSS
VL: DVVMTQSPLSLPVTPGEPASISCKSSQSLLDSDGKTYLNWLLQKPGQSPQRLIYLVSKLDSGVPDRFSGSGSGTDFTLKISRVEAEDVGVYYCWQGTHFPRTFGQGTKVEIK
notes: also called humanized 3D6v2; h3D6v2
Q: B1 was tested. Which OD (… analog, Residue 3 = C) did it give?
A: 0.41 OD

Q: And the OD (… analog, Residue 2 = F)?
A: 0.717 OD

Q: And the OD (… analog, Residue 8 = C)?
A: 0.7 OD

Q: And the OD (… analog, Residue 3 = M)?
A: 0.027 OD

Q: And the OD (… analog, Residue 3 = L)?
A: 0.026 OD

Q: What about the OD (… analog, Residue 1 = N) of the same binder?
A: 0.757 OD

Q: What about the OD (… analog, Residue 3 = Y) of the same binder?
A: 0.02 OD

Q: And the OD (… analog, Residue 2 = N)?
A: 0.735 OD

Q: And the OD (… analog, Residue 1 = K)?
A: 0.057 OD

Q: What about the OD (… analog, Residue 1 = W) of the same binder?
A: 0.07 OD

Q: And the OD (… analog, Residue 3 = Q)?
A: 0.406 OD

Q: And the OD (… analog, Residue 8 = N)?
A: 0.7 OD

Q: What about the OD (… analog, Residue 1 = E) of the same binder?
A: 0.7 OD

Q: What about the OD (… analog, Residue 1 = P) of the same binder?
A: 0.144 OD

Q: And the OD (… analog, Residue 8 = P)?
A: 0.694 OD

Q: What about the OD (… analog, Residue 3 = D) of the same binder?
A: 0.027 OD

Q: What about the OD (… analog, Residue 2 = T) of the same binder?
A: 0.712 OD

Q: What about the OD (… analog, Residue 1 = I) of the same binder?
A: 0.118 OD

Q: And the OD (… analog, Residue 2 = Q)?
A: 0.756 OD

Q: And the OD (… analog, Residue 3 = I)?
A: 0.024 OD

Q: And the OD (… analog, Residue 2 = G)?
A: 0.72 OD

Q: And the OD (… analog, Residue 3 = W)?
A: 0.304 OD

Q: And the OD (… analog, Residue 1 = F)?
A: 0.062 OD

Q: What about the OD (… analog, Residue 1 = L) of the same binder?
A: 0.148 OD

Q: And the OD (… analog, Residue 1 = Y)?
A: 0.498 OD

Q: What about the OD (… analog, Residue 1 = M) of the same binder?
A: 0.072 OD

Q: What about the OD (… analog, Residue 2 = I) of the same binder?
A: 0.722 OD

Q: And the OD (… analog, Residue 2 = K)?
A: 0.722 OD

Q: What about the OD (… analog, Residue 8 = H) of the same binder?
A: 0.683 OD

Q: What about the OD (… analog, Residue 3 = N) of the same binder?
A: 0.032 OD

Q: What about the OD (… analog, Residue 1 = R) of the same binder?
A: 0.155 OD

Q: And the OD (… analog, Residue 2 = H)?
A: 0.741 OD

Q: What about the OD (… analog, Residue 1 = S) of the same binder?
A: 0.762 OD

Q: What about the OD (… analog, Residue 1 = H) of the same binder?
A: 0.117 OD

Q: What about the OD (… analog, Residue 3 = K) of the same binder?
A: 0.09 OD

Q: And the OD (… analog, Residue 8 = R)?
A: 0.699 OD

Q: What about the OD (… analog, Residue 3 = P) of the same binder?
A: 0.02 OD

Q: What about the OD (… analog, Residue 1 = C) of the same binder?
A: 0.628 OD

Q: And the OD (… analog, Residue 1 = A)?
A: 0.643 OD

Q: What about the OD (… analog, Residue 8 = K) of the same binder?
A: 0.698 OD

Q: What about the OD (… analog, Residue 1 = G) of the same binder?
A: 0.738 OD

Q: And the OD (… analog, Residue 2 = C)?
A: 0.694 OD

Q: What about the OD (… analog, Residue 3 = H) of the same binder?
A: 0.02 OD

Q: What about the OD (… analog, Residue 2 = D) of the same binder?
A: 0.222 OD

Q: What about the OD (… analog, Residue 2 = R) of the same binder?
A: 0.719 OD

Q: And the Kd [1]?
A: 2.24 nM
